Reference: the RNAGym collection of RNA variant scans (doi:10.7554/elife.80360)

B1: CPEB3 Ribozyme (parent)
chain: GGGGGCCACAGCAGAAGCGUUCACGUCGCGGCCCCUGUCAGAUUCUGGUGAAUCUGCGAAUUCUGCUGU

Variants of: B1
Assay: self-cleavage, relative activity (ratio to wild type); higher = more cleavage; co-transcriptional

| Variant | self-cleavage |
| --- | --- |
| G4U G30C | 0.108 |
| G4U G30U | 0.103 |
| G4U C33U | 0.975 |
| G4U C33A | 1 |
| G4U G68U | 0.928 |
| G4U G5U | 0.0723 |
| G4U A52U | 0.677 |
| G4U A52G | 0.722 |
| G4U A52C | 0.519 |
| G4C U69G | 0.914 |
| G4C U69A | 0.877 |
| G4U G17A | 0.114 |
| G4C G28U | 0.109 |
| G4C G28A | 0.0907 |
| G4C G28C | 0.0443 |
| G4U C18U | 0.257 |
| G4U C18G | 0.0879 |
| G4U A8U | 0.737 |
| G4C U67C | 0.824 |
| G4C U67A | 0.902 |
| G4C U67G | 0.848 |
| G4U G31U | 0.126 |
| G4U G31C | 0.0584 |
| G4U C24G | 0.0638 |

| Variant | self-cleavage |
| --- | --- |
| G4U C24A | 0.122 |
| G4U G41C | 0.126 |
| G4C U62C | 0.213 |
| G4C U62G | 0.311 |
| G4U U44C | 0.552 |
| G4U U44G | 0.384 |
| G4C G41A | 0.0714 |
| G4C G41C | 0.146 |
| G4U C27A | 0.11 |
| G4U C27U | 0.114 |
| G4U A13U | 0.383 |
| G4U A13C | 0.336 |
| G4U G50A | 0.752 |
| G4U A23G | 0.502 |
| G4U G47C | 0.793 |
| G4U G47U | 0.873 |
| G4U G47A | 0.804 |
| G4C U53A | 0.316 |
| G4C U53C | 0.239 |
| G4C G48C | 0.675 |
| G4C G48U | 0.755 |
| G4U A51C | 0.524 |
| G4U A51G | 0.692 |
| G4U A51U | 0.772 |

| Variant | self-cleavage |
| --- | --- |
| G4U G37A | 0.144 |
| G4U G37C | 0.169 |
| G4U A15U | 0.272 |
| G4U C39A | 0.322 |
| G4U C57G | 0.165 |
| G4U C57U | 0.211 |
| G4C G56A | 0.289 |
| G4C G56C | 0.246 |
| G4U U26G | 0.3 |
| G4C G50C | 0.621 |
| G4C G50A | 0.654 |
| G4C U26G | 0.217 |
| G4C U26A | 0.125 |
| G4U A60U | 0.219 |
| G4U A60C | 0.171 |
| G4U U20C | 0.14 |
| G4U U20G | 0.0683 |
| G4U U20A | 0.121 |
| G4C G25U | 0.0499 |
| G4C U36A | 0.0958 |
| G4C U36C | 0.589 |
| G4C U36G | 0.481 |
| G4U A59U | 0.193 |
| G4U A59C | 0.146 |

| Variant | self-cleavage |
| --- | --- |
| G4U U43G | 0.389 |
| G4U U43A | 0.455 |
| G4U G19U | 0.112 |
| G4U G19C | 0.0957 |
| G4U G19A | 0.0808 |
| G4U C35U | 0.128 |
| G4U C35G | 0.101 |
| G4U C35A | 0.114 |
| G4C G47U | 0.638 |
| G4C G47A | 0.674 |
| G4C U38A | 0.639 |
| G4C U38G | 0.152 |
| G4U G65A | 0.521 |
| G4U G58A | 0.377 |
| G4U G58C | 0.457 |
| G4U C54A | 0.289 |
| G4U C54U | 0.709 |
| G4U C54G | 0.21 |
| G4U C66A | 0.468 |
| G4U C66U | 0.771 |
| G4C U20C | 0.0911 |
| G4C U20G | 0.072 |
| G4C U20A | 0.0691 |
| G4U G14U | 0.241 |

| Variant | self-cleavage |
| --- | --- |
| G4U G14C | 0.205 |
| G4U G28C | 0.0704 |
| G4U G11U | 0.492 |
| G4U G11A | 0.571 |
| G4U G11C | 0.228 |
| G4C U64C | 0.426 |
| G4C U64A | 0.457 |
| G4C U46C | 0.619 |
| G4U C63G | 0.292 |
| G4U U38A | 0.73 |
| G4U U38C | 0.525 |
| G4U U46A | 0.746 |
| G4U G48A | 0.856 |
| G4U G25A | 0.101 |
| G4U G25C | 0.116 |
| G4U G25U | 0.0695 |
| G4U C22A | 0.065 |
| G4U C22U | 0.0611 |
| G4C U61G | 0.178 |
| G4C U61C | 0.169 |
| G4U C29A | 0.0776 |
| G4U G56U | 0.559 |
| G4U G56C | 0.339 |
| G4U C45A | 0.554 |

| Variant | self-cleavage |
| --- | --- |
| G4U C45U | 0.743 |
| G4U C45G | 0.587 |
| G4U C12G | 0.182 |
| G4U C12A | 0.255 |
| G4U C12U | 0.819 |
| G4U U21A | 0.654 |
| G4U U21C | 0.4 |
| G4C G37A | 0.124 |
| G4C G37U | 0.0878 |
| G4C G37C | 0.068 |
| G4U C9G | 0.974 |
| G4U C9A | 0.982 |
| G4C U44G | 0.265 |
| G4U A42U | 0.526 |
| G4U A42G | 0.655 |
| G4C G68U | 0.98 |
| G4C U21A | 0.427 |
| G4C U21C | 0.215 |
| G4C U21G | 0.0719 |
| G4U A40G | 0.542 |
| G4U A40U | 0.313 |
| G4U C32U | 0.436 |
| G4U C32G | 0.129 |
| G4U C32A | 0.135 |

| Variant | self-cleavage |
| --- | --- |
| G4C G31C | 0.105 |
| G4C U43A | 0.251 |
| G4U U36A | 0.122 |
| G4U U36C | 0.651 |
| G4U U36G | 0.492 |
| G4C U55C | 0.237 |
| G4C U55A | 0.261 |
| G4U A16U | 0.235 |
| G4U C7U | 0.233 |
| G4U A10U | 0.983 |
| G4U C6G | 0.0353 |
| G4U C6A | 0.0552 |
| G4C G30U | 0.0789 |
| G4C G30A | 0.0414 |
| G4C G65U | 0.294 |
| G4C G65A | 0.412 |
| G4C G65C | 0.242 |
| G4C G58A | 0.278 |
| G4C G58C | 0.226 |
| G4C G58U | 0.71 |
| G4U C34U | 0.361 |
| G4U C34A | 0.167 |
| G4U C34G | 0.113 |
